B1: Calcium-binding protein 39 (Homo sapiens), Q9Y376 (parent)
chain: MPFPFGKSHKSPADIVKNLKESMAVLEKQDISDKKAEKATEEVSKNLVAMKEILYGTNEKEPQTEAVAQLAQELYNSGLLSTLVADLQLIDFEGKKDVAQIFNNILRRQIGTRTPTVEYICTQQNILFMLLKGYESPEIALNCGIMLRECIRHEPLAKIILWSEQFYDFFRYVEMSTFDIASDAFATFKDLLTRHKLLSAEFLEQHYDRFFSEYEKLLHSENYVTKRQSLKLLGELLLDRHNFTIMTKYISKPENLKLMMNLLRDKSRNIQFEAFHVFKVFVANPNKTQPILDILLKNQAKLIEFLSKFQNDRTEDEQFNDEKTYLVKQIRDLKRPAQQEA
B2: Calcium-binding protein 39 (Homo sapiens), Q9Y376 (parent)
chain: B1 chain
partner: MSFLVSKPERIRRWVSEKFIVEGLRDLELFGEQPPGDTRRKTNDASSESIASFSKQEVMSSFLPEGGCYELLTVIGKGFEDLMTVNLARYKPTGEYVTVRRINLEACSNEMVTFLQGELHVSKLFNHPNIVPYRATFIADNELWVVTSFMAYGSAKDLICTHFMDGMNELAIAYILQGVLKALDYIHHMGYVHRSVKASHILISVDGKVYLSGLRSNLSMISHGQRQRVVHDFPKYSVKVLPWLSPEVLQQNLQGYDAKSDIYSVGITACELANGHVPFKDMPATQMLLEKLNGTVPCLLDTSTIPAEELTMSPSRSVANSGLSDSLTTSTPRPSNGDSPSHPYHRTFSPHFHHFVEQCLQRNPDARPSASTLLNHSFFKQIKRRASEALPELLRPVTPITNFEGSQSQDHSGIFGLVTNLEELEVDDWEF

How the values were obtained:
[1] = variants of: B1; conditions: with stk39_human STK39, Q9UEW8
[2] = variants of: B1; conditions: with oxsr1_human OXSR1, O95747
[3] = variants of: B1; conditions: with stk26_human STK26, Q9P289
[4] = variants of: B1; conditions: with stk26_human STK26, Q9P289; remark: listed apart in the source
[5] = variants of: B1; conditions: with stk39_human STK39, Q9UEW8; remark: listed apart in the source
[6] = variants of: B1; conditions: with oxsr1_human OXSR1, O95747; remark: listed apart in the source
[7] = variants of: B1; conditions: with stk25_human STK25, O00506
[8] = variants of: B1; conditions: with stk26_human STK26, Q9P289; remark: listed apart in the source
[9] = variants of: B1; conditions: with stk39_human STK39, Q9UEW8; remark: listed apart in the source
[10] = variants of: B1; conditions: with oxsr1_human OXSR1, O95747; remark: listed apart in the source
[11] = variants of: B2; conditions: with straa_human STRADA

Chain of oxsr1_human OXSR1, O95747 (O95747 whole entry, looked up): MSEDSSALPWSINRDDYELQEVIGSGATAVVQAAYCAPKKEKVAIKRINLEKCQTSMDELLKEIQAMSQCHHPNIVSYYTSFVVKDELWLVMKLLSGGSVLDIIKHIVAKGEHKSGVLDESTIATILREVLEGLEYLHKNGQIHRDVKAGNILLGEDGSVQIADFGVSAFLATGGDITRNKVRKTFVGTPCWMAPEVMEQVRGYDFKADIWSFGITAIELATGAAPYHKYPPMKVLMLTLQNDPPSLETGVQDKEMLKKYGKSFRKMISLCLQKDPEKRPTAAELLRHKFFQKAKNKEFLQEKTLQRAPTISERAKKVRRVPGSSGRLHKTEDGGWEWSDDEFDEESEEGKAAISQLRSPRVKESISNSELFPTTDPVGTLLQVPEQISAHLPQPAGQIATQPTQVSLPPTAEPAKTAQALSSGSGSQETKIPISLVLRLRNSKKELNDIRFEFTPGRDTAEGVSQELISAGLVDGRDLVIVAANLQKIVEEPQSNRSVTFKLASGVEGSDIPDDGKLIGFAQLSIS
Chain of stk26_human STK26, Q9P289 (Q9P289 whole entry, looked up): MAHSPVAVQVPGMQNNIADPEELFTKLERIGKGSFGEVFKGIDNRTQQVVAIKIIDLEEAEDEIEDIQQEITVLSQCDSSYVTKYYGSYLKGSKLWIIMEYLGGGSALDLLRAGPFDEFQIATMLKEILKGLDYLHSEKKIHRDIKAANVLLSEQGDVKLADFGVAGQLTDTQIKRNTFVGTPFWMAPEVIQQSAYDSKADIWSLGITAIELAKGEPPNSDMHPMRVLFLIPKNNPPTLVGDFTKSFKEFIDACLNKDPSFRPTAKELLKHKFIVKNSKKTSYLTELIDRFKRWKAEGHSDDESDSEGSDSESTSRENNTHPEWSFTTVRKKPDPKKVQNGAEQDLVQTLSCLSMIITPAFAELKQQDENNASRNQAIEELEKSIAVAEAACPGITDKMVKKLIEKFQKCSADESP
Chain of stk25_human STK25, O00506 (O00506 whole entry, looked up): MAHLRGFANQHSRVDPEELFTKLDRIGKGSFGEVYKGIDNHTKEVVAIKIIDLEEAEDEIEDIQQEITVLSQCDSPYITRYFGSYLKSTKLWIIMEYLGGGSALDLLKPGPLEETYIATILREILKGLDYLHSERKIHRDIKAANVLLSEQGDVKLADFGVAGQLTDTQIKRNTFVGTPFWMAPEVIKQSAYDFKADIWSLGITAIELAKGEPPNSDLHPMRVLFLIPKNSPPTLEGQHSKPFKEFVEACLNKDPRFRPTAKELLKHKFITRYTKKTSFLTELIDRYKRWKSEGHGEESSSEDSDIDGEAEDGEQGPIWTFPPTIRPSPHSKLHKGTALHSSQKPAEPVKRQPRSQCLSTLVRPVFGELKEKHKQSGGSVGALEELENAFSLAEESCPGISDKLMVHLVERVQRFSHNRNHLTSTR

## R227A
[1]
  effect of a mutation on the interaction: disrupting interaction
[2]
  effect of a mutation on the interaction: disrupting interaction
[3]
  effect of a mutation on the interaction: disrupting interaction
[4]
  effect of a mutation on the interaction: decreasing interaction
[5]
  effect of a mutation on the interaction: decreasing interaction
[6]
  effect of a mutation on the interaction: decreasing interaction
[7]
  effect of a mutation on the interaction: disrupting interaction

## M260A
[1]
  effect of a mutation on the interaction: disrupting interaction
[2]
  effect of a mutation on the interaction: disrupting interaction
[3]
  effect of a mutation on the interaction: disrupting interaction
[8]
  effect of a mutation on the interaction: decreasing interaction
[9]
  effect of a mutation on the interaction: decreasing interaction
[10]
  effect of a mutation on the interaction: decreasing interaction
[7]
  effect of a mutation on the interaction: disrupting interaction

## R227A
[11]
  effect of a mutation on the interaction: disrupting interaction

## M260A
[11]
  effect of a mutation on the interaction: disrupting interaction
